Laboratory results reported in US20020054872A1, “Peptides for the treatment of systemic lupus erythematosus and methods of treating systemic lupus erythematosus” (priority 1997, published 2002).
Blank lines part the entries; values can stand above or below the molecule they belong to. Residues, ends and D or L forms follow the SMILES beside them.

Assays:
[1] = tested on: C72 murine anti-DNA antibody; experiment: Direct binding ELISA of C72 to laminin peptides; set-up: species or system mouse; details: for binding of C72 murine anti-DNA antibody to laminin peptides: FIG. 1, C72 conditioned medium in various dilutions; for C72 Binding: direct binding ELISA test after one (1) hour
Experimental: The C72 murine anti-DNA antibody has been derived from (NZB×NZW)F1 lupus mice by the hybridoma technique as described in Eilat D. et al J. Immunol. […] The monoclonal anti-DNA antibodies DIL6 and B3 were derived from lupus patients by hybridoma technique as described in Ehrenstein M. R. et al J. Clin. Invest. (1994) 93 1787-1799 and Ehrenstein M. R. et al Kidney Inter. (1995) 48 705-711.
Wells were coated with 10 μg/ml of the peptides, blocked with 1% BSA (bovine serum albumin) in PBS (pH 7,4), reacted with appropriately diluted serum or urine samples or monoclonal antibodies, incubated with anti-human or anti-mouse immunoglobulin enzyme conjugated to alkaline phosphatase and detected by addition of substrate (Sigma 100 Phosphatase Substrate Tablets) and color development using an Organon Teknika Microwell System spectrometer at wavelength of 405 nm.
The interaction of the C72 murine anti-DNA antibody with laminin peptides was analyzed by ELISA as described above. The C72 conditioned medium was diluted in PBS in various dilutions.
The peptides of the present invention were tested for their ability to bind directly with C72 murine anti-DNA antibodies and B3 human anti-DNA antibodies according to the method described hereinabove.

[2] = tested on: C72 murine anti-DNA antibody; experiment: Competitive inhibition of C72 binding to 5200; set-up: species or system mouse; details: FIG. 2, incubation with inhibiting agent
Experimental: The binding of C72 to 5200 was tested before and after incubation with 5200, R38, R18, Heparin, DNA and DNase. […] The percent inhibition is the percent reduction of the O.D. after incubation with the inhibiting agent.

[3] = target: C72 murine anti-DNA antibody; experiment: competitive inhibition ELISA: C72 preincubated with peptide, binding to coated 5100 (R38)

Molecule: DNase [reference compound]
inhibition of the binding of C72 to 5200 [2]: not by a control peptide or treatment with DNase

B1: 5101 peptide, Res. 1-16 of 5100 (peptide)
peptide: KEGYKVRLDLNITLEF
IC50 [3]: 5 µg/mL

B2: 5200 peptide, mouse R38 analog (peptide)
peptide: KEGYKVRLDLNTTLEFRTTSK
IC50 [3]: 10 µg/mL

B3: 5108 peptide, Ala subst. of 5100 at all negative a.a. (peptide)
peptide: KAGYKVRLALNITLAFRTTSK
IC50 [3]: 2 µg/mL

B4: 5106 peptide, charge subst. to neg. at 5100 a.a. 7 (peptide)
peptide: KEGYKVELDLNITLEFRTTSK
IC50 [3]: 2.5 µg/mL

B5: 5102 peptide, Res. 6-17 of 5100 (peptide)
peptide: VRLDLNITLEFR
IC50 [3]: 30 µg/mL

B6: R38 peptide (5100), mouse laminin alpha chain residues 2890-2910 (peptide)
peptide: KEGYKVRLDLNITLEFRTTSK
IC50 [3]: 10 µg/mL

B7: 5110 peptide, Ala subst. of 5100 a.a. 15 (peptide)
peptide: KEGYKVRLDLNITLAFRTTSK
IC50 [3]: 0.7 µg/mL

B8: 5107 peptide, charge subst. to neg. at 5100 a.a. 17 (peptide)
peptide: KEGYKVRLDLNITLEFETTSK
IC50 [3]: 85 µg/mL

B9: 5109 peptide, Ala subst. of 5100 a.a. 9 (peptide)
peptide: KEGYKVRLALNITLEFRTTSK
IC50 [3]: 0.7 µg/mL

More lines, now with the values ahead:

binding of C72 murine anti-DNA antibody to laminin peptides [1]: binding
Molecule: KQNCLSSRASFRGCVRNLRLSR [Peptide R30, residues 3011-3032 of mouse laminin α chain]

binding of C72 murine anti-DNA antibody to laminin peptides [1]: binding
Molecule: KATPMLKMRTSFHGCIK [Peptide R37, residues 2615-2631 of mouse laminin α chain]

inhibition of the binding of C72 to 5200 [2]: inhibition
Molecule: heparin [reference compound]

inhibition of the binding of C72 to 5200 [2]: inhibition
Molecule: DNA [reference compound]

C72 Binding [1]: 0.08 O.D.
Molecule: CC[C@H](C)[C@H](NC(=O)[C@H](CC(N)=O)NC(=O)[C@H](CC(C)C)NC(=O)[C@H](CC(=O)O)NC(=O)[C@H](CC(C)C)NC(=O)[C@H](C)NC(=O)[C@@H](NC(=O)[C@H](C)NC(=O)[C@H](Cc1ccc(O)cc1)NC(=O)CNC(=O)[C@H](CCC(=O)O)NC(=O)[C@H](C)N)C(C)C)C(=O)N[C@H](C(=O)N[C@@H](CC(C)C)C(=O)N[C@@H](CCC(=O)O)C(=O)N[C@@H](Cc1ccccc1)C(=O)N[C@@H](C)C(=O)N[C@H](C(=O)N[C@H](C(=O)N[C@@H](CO)C(=O)N[C@@H](C)C(=O)O)[C@@H](C)O)[C@@H](C)O)[C@@H](C)O [Peptide 5104] (H-AEGYAVALDLNITLEFATTSA-OH; N-terminus and C-terminus assumed)

C72 Binding [1]: 2.5 O.D.
Molecule: CC[C@H](C)[C@H](NC(=O)[C@H](CC(N)=O)NC(=O)[C@H](CC(C)C)NC(=O)[C@H](CC(=O)O)NC(=O)[C@H](CC(C)C)NC(=O)[C@H](CCCNC(=N)N)NC(=O)[C@@H](NC(=O)[C@H](CCCCN)NC(=O)[C@H](Cc1ccc(O)cc1)NC(=O)CNC(=O)[C@H](CCC(=O)O)NC(=O)[C@@H](N)CCCCN)C(C)C)C(=O)N[C@H](C(=O)N[C@@H](CC(C)C)C(=O)N[C@@H](C)C(=O)N[C@@H](Cc1ccccc1)C(=O)N[C@@H](CCCNC(=N)N)C(=O)N[C@H](C(=O)N[C@H](C(=O)N[C@@H](CO)C(=O)N[C@@H](CCCCN)C(=O)O)[C@@H](C)O)[C@@H](C)O)[C@@H](C)O [Peptide 5110] (H-KEGYKVRLDLNITLAFRTTSK-OH; N-terminus and C-terminus assumed)
